Assay [1] deals with human platelet factor 4 (human).
The target in assay [2] is adenovirus type 5 vector particles (wild-type capsid) (human adenovirus type 5). Description: SPR; MP-SPR 220A, CMD 2D sensor, viruses amine-coupled, 22°C; PF4 at 7 μg/mL (900 nM) in pure PBS without passivating agents, 600 s injection, then flush.
The target in another assay is human platelet factor 4. Kind of assay: ELISA-qPCR. The conditions noted are these: PF4-coated wells; N = 6, two independent repeats; bar labelled Ad5-ΔfX; parent: est. 1.7e5; read off a plot. (ELISA stands for enzyme-linked immunosorbent assay.)

pKd: −log10 of the molar value.

“adenovirus type 5 vector particles (wild-type capsid), P06496 1-107”: in assay [1], the VP uptake in A549 cells (internalized Ad genomes by qPCR, 3 hpi, 20 vpc) after incubation with 10 μg/mL PF4 is 3 fold. As for “adenovirus type 69 vector particles (complex)”, the VP uptake in A549 cells (internalized Ad genomes by qPCR, 3 hpi, 20 vpc) after incubation with 10 μg/mL PF4 in assay [1] is 3 fold. In the case of “human platelet factor 4 (natural protein)”, the pKd (in general, the negative decadic logarithm of the Kd, by convention in mol/L) in assay [2] is 5.98. In assay [1], “adenovirus type 11 vector particles (complex)” showed a VP uptake in A549 cells (internalized Ad genomes by qPCR, 3 hpi, 20 vpc) after incubation with 10 μg/mL PF4 of 1.6 fold.

In the case of “adenovirus type 5 vector particles (wild-type capsid) (from UniProt P06496) T425A”, in the assay with human platelet factor 4, the response (number of bound VPs) was found to be 290000. In assay [1], “adenovirus type 13 vector particles (complex)” had a VP uptake in A549 cells (internalized Ad genomes by qPCR, 3 hpi, 20 vpc) after incubation with 10 μg/mL PF4 of 1.6 fold.

Values taken from article PMC12775996.
